We go through 1 molecule from patent publication US20230257476A1 (ELANCO US, published 2023).

In this assay the target is T1, canine CD20 (canine, UniProt Q3C2E2 1-297).
T1 construct: whole, on cells; Endogenous antigen in acetone-fixed tissue cryosections (IHC); also called CD20 protein in dogs
T1 sequence (looked up): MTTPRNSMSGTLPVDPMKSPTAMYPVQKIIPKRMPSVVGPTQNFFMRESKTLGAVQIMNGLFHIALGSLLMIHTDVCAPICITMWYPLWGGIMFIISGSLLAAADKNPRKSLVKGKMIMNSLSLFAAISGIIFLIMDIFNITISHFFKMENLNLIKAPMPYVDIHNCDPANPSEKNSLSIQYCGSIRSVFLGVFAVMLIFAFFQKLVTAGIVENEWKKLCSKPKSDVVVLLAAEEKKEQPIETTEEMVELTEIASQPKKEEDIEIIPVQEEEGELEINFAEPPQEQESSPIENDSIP
Description: IHC, precomplexed with biotinylated rabbit anti-dog IgG, cryosections of canine spleen, 10 ug/mL. How it is done:
The detection reagent or negative control antibody (at a concentration of 10 […]) was mixed with biotinylated rabbit anti-dog IgG, Fc fragment-specific antibody (RbaDglgG) at a concentration of 15 ug/mL to achieve a primary : secondary antibody ratio of 1:1.5 on the day prior to staining.
Precomplexed antibodies were incubated overnight on a rocker mechanism in a refrigerator set to maintain 4° C., Prior to use of the antibody on the subsequent day, dog gamma globulins were added to each vial to achieve a final concentration of 3 mg/mL, and then incubated for at least 2 hours on the rocker mechanism in a refrigerator set to maintain 4° C. Slides were fixed in acetone for 10 minutes at room temperature at the time of sectioning. On the day of staining, the slides were rinsed twice with Tris-buffered saline, 0.15M NaCl, pH 7.6 TBS. Endogenous peroxidase was then quenched by incubation of the slides with an appropriate reagent such as Biocare PeroxAbolish reagent for 5 minutes at room temperature. Next, the slides were rinsed twice with TBS, incubated with the avidin solution for 15 minutes, rinsed once with TBS, incubated with the biotin solution for 15 minutes, and rinsed once with TBS, The slides were then treated with a protein block designed to reduce nonspecific binding for 20 minutes.

B1: K9LO-133 (antibody, V domains shown)
VH: EVQLVQSGAEVKKPGESLKISCKGSGRTFTSYNMHWVRQMPGKGLEWMGAIYPLTGDTSYNQKSKLQVTISADKSISTAYLQWSSLKASDTAMYYCARSTYVGGDWQFDVWGKGTTVTVSS
VL: EIVLTQSPGTLSLSPGERATLSCRASRSVPYIHWYQQKPGQAPRLLIYATSALASGIPDRFSGSGSGTDFTLTISRLEPEDFAVYYCQQWLSNPPTFGQGTKLEIKR
notes: In the IHC it was precomplexed with biotinylated rabbit anti-dog IgG Fc antibody; also called chimeric canine isotype C monoclonal antibody directed against canine CD20
B1: the binding result is “binds”.
